Reference: patent US20170226208A1 (SUPPREMOL, published 2017)

How the values were obtained:
[1] = molecular target: FcεRI at the surface of basophils (human) (UniProt P12319); assay: cell-based or functional assay
[2] = molecular target: T1, recombinant soluble human FcγRIIB (human, UniProt P31994 43-217); assay: antigen-specific ELISA, sFcγRIIB coated, hybridoma supernatant
T1 construct: also called sFcγRIIB; SM101
T1 sequence: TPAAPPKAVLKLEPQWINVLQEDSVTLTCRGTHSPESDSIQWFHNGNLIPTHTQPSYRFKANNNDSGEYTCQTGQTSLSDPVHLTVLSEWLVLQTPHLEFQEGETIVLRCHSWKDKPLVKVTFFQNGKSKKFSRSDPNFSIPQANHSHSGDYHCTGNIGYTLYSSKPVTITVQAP
Protocol: Fusion of the myeloma cell line with the rat immune spleen cells was performed according to standard procedures. […] MAbs from tissue culture supernatant bound to the proteins were detected with HRP conjugated mAbs against the rat IgG isotypes (TIB173 anti-IgG2a, TIB174 anti-IgG2b, TIB170 anti-IgG1 all from ATCC, R-2c anti-IgG2c homemade), thus avoiding mAbs of IgM class. […] A FACS based assay was used to screen the antibodies for specific binding of the native antigen). Additionally the antibodies were screened for non-blocking characteristics, i.e. these antibodies still allow binding of IgG or immune complexes to membrane-bound FcγRIIB.

[3] = molecular target: T2, recombinant soluble human FcγRIIB (UniProt P31994 43-217); assay: SPR; wildtype Fc format
T2 chain: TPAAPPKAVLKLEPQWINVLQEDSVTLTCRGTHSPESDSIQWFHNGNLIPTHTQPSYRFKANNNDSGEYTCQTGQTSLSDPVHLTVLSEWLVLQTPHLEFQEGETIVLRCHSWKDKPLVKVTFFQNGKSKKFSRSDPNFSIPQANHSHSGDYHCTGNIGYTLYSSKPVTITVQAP

[4] = molecular target: T3, native FcγRIIB expressed on cells (Raji, Daudi, PBMC B cells) (human, UniProt P31994 43-310); assay: cell-based or functional assay
T3 sequence (looked up): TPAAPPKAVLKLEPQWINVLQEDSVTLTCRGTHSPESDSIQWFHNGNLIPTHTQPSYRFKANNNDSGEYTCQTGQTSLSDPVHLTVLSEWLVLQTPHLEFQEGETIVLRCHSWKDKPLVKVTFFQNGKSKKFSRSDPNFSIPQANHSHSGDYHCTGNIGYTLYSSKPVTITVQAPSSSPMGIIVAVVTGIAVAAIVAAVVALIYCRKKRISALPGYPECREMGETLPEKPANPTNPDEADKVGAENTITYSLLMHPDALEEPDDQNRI

[5] = molecular target: T2, recombinant soluble human FcγRIIB; assay: SPR; N297A format

Chain of FcεRI at the surface of basophils (human) (P12319 26-257): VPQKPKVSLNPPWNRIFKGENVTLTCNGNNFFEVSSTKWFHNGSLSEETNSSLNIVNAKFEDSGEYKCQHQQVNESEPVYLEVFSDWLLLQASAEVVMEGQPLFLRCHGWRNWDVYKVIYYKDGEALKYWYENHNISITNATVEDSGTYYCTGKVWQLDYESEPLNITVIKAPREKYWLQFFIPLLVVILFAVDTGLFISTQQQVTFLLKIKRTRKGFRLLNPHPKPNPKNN

B1: ch8A6_cε2-4-degly (bispecific antibody, part only; not given: CH1, CL and IgE Fc domains, not shown: a dimerising Fc or GST)
heavy, part: EVQLVESGGDLVQPGRSLRLSCAASGFTFSDYYMAWVRQAPKKGLEWVASISSDGSNTYYGDSVKGRFTISRDNTRSNLYLQMNSLRSEDTATYYCARPGDYWGQGVMVTVSS
light, part: NIVMTQSPTSMFISVGDRVTMNCKASQNVGTYVDWFQQKTGQSPTLLIFGASNRYTGVPDRFTGSGSGTDFTLSISNMQAEDLAVYYCLQYNYHPYTFGPGTTLELKR
B1 showed a basophil activation by pollen, CD63-positive basophils, after 2 h incubation with antibody (% positive cells) [1] of 84.4 to 88, a basophil activation by pollen, CD63-positive basophils, after 6 h incubation with 0.5 µg/ml antibody [1] of 76.6% and a basophil activation by pollen, CD63-positive basophils, after 6 h incubation with antibody [1] of 76 to 84%.

B2: monoclonal antibody 8A6 (rat IgG2a) (antibody, V domains shown)
VH: EVQLVESGGDLVQPGRSLRLSCAASGFTFSDYYMAWVRQAPKKGLEWVASISSDGSNTYYGDSVKGRFTISRDNTRSNLYLQMNSLRSEDTATYYCARPGDYWGQGVMVTVSS
VL: NIVMTQSPTSMFISVGDRVTMNCKASQNVGTYVDWFQQKTGQSPTLLIFGASNRYTGVPDRFTGSGSGTDFTLSISNMQAEDLAVYYCLQYNYHPYTFGPGTTLELKR
notes: Rat IgG2a from hybridoma supernatant; also called mAb 8A6; rat antibody 8A6
B2: binds [2].

B3: ch8A6_wt (antibody)
chain 1: EVQLVESGGDLVQPGRSLRLSCAASGFTFSDYYMAWVRQAPKKGLEWVASISSDGSNTYYGDSVKGRFTISRDNTRSNLYLQMNSLRSEDTATYYCARPGDYWGQGVMVTVSS
chain 2: NIVMTQSPTSMFISVGDRVTMNCKASQNVGTYVDWFQQKTGQSPTLLIFGASNRYTGVPDRFTGSGSGTDFTLSISNMQAEDLAVYYCLQYNYHPYTFGPGTTLELKR
In the case of B3, the koff [3] is reported as 0.00049 s⁻¹.

B4: chGB3_N297A (antibody, V domains shown)
VH: VQLQQSGPELVKPGASVKISCKASGYTFTDYYIYWVKQWPGQGLEWIGWIFPGTGNTYYNENFKDKATLTIDRSSSTAYMLLGSLTSEDSAVYFCYGPFAYWGQ
VL: RIQLTQSPSSLSASLGERVSLTCRASQEISGYLSWLQQKPDGTIKRLIYATSALDSGVPKRFSGSGSGSNYSLTISSLESEDFADYYCLQYANYPYTFGGGTKL
With B4 the “FcγRIIB-ITIM phosphorylation, densitometry of Western blot, Daudi cells, against untreated cells” value [4] was 2.8 fold and the koff [5] was 0.01 s⁻¹.
